Literature values as cited in publication PMC11764136.

Molecular target: amyloid-β oligomers Aβ (Homo sapiens) (UniProt P05067)

In the case of PrPC (from UniProt P04156), the Kd is listed as 4 nM.
